Experimental data reported in patent publication US20030229005A1 (BIOZYME, published 2003).
*1 amine or outer side, *2 acyl side, *3 side chain or, on linkers, in order; H or OH if unused. [ ]: non-standard residue; d: D form. The star is where a group is joined. Dnp = O=[N+]([O-])c1ccc(*)c([N+](=O)[O-])c1; C(Me) = CSC[C@H](N[*:1])C(=O)[*:2]

Key:
Test in all cases: cell-based or functional assay
human Gelatinase-A = molecular target: T1, human Gelatinase-A (human, UniProt P08253 110-660, limits assumed)
T1 sequence (looked up): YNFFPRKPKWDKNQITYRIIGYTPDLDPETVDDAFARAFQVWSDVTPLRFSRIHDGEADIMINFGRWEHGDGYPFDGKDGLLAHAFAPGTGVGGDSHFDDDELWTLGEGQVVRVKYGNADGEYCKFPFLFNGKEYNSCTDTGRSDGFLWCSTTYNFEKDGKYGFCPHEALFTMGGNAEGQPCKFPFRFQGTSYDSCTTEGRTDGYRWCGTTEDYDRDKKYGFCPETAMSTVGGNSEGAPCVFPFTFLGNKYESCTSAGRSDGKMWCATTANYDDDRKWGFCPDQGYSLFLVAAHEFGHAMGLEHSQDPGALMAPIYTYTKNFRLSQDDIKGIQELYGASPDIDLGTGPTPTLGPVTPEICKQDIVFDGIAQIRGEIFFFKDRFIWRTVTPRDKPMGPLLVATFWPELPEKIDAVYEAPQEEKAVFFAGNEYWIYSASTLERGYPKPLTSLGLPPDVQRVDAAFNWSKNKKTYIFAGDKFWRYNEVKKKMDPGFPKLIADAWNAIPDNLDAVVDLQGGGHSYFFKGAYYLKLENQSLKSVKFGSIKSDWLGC

gelatinase B = gelatinase B (UniProt P14780 107-707, limits assumed)
Sequence of gelatinase B (P14780 107-707 limits assumed): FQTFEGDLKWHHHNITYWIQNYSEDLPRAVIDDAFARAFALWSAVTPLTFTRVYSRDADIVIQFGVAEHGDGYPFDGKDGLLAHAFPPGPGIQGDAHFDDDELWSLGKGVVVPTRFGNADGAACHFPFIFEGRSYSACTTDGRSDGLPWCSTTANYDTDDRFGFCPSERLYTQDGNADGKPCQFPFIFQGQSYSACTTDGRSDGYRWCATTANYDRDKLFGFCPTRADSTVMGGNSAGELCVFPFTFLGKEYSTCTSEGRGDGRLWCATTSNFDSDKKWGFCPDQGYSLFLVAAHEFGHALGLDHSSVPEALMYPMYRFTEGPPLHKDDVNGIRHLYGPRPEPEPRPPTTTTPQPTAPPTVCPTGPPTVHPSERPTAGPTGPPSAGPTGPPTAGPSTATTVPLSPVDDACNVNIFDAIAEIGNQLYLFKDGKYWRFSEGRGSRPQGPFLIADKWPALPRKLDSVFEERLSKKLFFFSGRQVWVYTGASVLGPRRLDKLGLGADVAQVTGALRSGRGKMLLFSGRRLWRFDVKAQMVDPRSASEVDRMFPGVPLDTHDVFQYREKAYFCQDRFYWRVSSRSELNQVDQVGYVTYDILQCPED

collagenase 1 = molecular target: T2, collagenase 1 (UniProt P03956 100-469, limits assumed)
T2 sequence (looked up): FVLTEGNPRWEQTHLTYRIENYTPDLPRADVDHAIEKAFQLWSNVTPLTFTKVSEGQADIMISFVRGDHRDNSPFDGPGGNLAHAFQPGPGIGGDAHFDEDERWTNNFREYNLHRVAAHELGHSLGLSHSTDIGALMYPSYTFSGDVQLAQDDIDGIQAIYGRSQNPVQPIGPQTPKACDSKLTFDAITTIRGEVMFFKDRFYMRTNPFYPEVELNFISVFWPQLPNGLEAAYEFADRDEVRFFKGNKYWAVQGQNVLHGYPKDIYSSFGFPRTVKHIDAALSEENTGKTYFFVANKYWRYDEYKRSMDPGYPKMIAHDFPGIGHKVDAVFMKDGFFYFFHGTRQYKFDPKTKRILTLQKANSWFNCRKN

stromelysin 1 = stromelysin 1 (UniProt P08254 100-477, limits assumed)
Sequence of stromelysin 1 (P08254 100-477 limits assumed): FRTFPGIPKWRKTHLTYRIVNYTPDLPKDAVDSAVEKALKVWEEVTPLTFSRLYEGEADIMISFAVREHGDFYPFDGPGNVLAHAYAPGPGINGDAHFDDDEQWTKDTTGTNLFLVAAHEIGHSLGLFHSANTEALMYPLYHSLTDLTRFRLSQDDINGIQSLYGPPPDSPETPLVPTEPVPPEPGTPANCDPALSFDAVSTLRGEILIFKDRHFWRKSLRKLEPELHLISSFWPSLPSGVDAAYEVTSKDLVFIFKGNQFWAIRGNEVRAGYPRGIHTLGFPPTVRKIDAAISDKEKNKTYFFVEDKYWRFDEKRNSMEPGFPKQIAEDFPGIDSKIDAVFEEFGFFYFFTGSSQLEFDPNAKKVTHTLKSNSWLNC

B1: Dnp-GPRPFRG-NH2 (peptide)
peptide: Dnp-GPRPFRG-NH2
SMILES: N=C(N)NCCC[C@H](NC(=O)[C@H](Cc1ccccc1)NC(=O)[C@@H]1CCCN1C(=O)[C@H](CCCNC(=N)N)NC(=O)[C@@H]1CCCN1C(=O)CNc1ccc([N+](=O)[O-])cc1[N+](=O)[O-])C(=O)NCC(N)=O
For B1, the “Selectivity v. Coll-3” value (human Gelatinase-A) was 9 unitless, the “Selectivity v. Coll-3” value (gelatinase B) was 4 unitless and the “Selectivity v. Coll-3” value (collagenase 1) was 4200 unitless.

B2: Dnp-GPMSYNG-NH2 (peptide)
peptide: Dnp-GPMSYNG-NH2
SMILES: CSCC[C@H](NC(=O)[C@@H]1CCCN1C(=O)CNc1ccc([N+](=O)[O-])cc1[N+](=O)[O-])C(=O)N[C@@H](CO)C(=O)N[C@@H](Cc1ccc(O)cc1)C(=O)N[C@@H](CC(N)=O)C(=O)NCC(N)=O
B2 was tested, and the “Selectivity v. Coll-3” value (human Gelatinase-A) was 5 unitless, the “Selectivity v. Coll-3” value (gelatinase B) was 3 unitless and the “Selectivity v. Coll-3” value (collagenase 1) was 201 unitless.

B3: Dnp-VC(Me)PKGITSC(Me)VFR-NH2 (peptide)
peptide: Dnp-V[C(Me)]PKGITS[C(Me)]VFR-NH2
SMILES: CC[C@H](C)[C@H](NC(=O)CNC(=O)[C@H](CCCCN)NC(=O)[C@@H]1CCCN1C(=O)[C@H](CSC)NC(=O)[C@@H](Nc1ccc([N+](=O)[O-])cc1[N+](=O)[O-])C(C)C)C(=O)N[C@H](C(=O)N[C@@H](CO)C(=O)N[C@@H](CSC)C(=O)N[C@H](C(=O)N[C@@H](Cc1ccccc1)C(=O)N[C@@H](CCCNC(=N)N)C(N)=O)C(C)C)[C@@H](C)O
For B3, the “Selectivity v. Coll-3” value (human Gelatinase-A) was 7 unitless, the “Selectivity v. Coll-3” value (gelatinase B) was 1 unitless and the “Selectivity v. Coll-3” value (collagenase 1) was 215 unitless. The “Selectivity v. Coll-3” value (stromelysin 1) was 835 unitless.

B4: Dnp-PLGMRG-NH2 (peptide)
peptide: Dnp-PLGMRG-NH2
SMILES: CSCC[C@H](NC(=O)CNC(=O)[C@H](CC(C)C)NC(=O)[C@@H]1CCCN1c1ccc([N+](=O)[O-])cc1[N+](=O)[O-])C(=O)N[C@@H](CCCNC(=N)N)C(=O)NCC(N)=O
In the case of B4, the “Selectivity v. Coll-3” value (human Gelatinase-A) is reported as 2 unitless, the “Selectivity v. Coll-3” value (gelatinase B) is reported as 1 unitless and the “Selectivity v. Coll-3” value (collagenase 1) is reported as 73 unitless.

B5: Dnp-GPLGMRG-NH2 (peptide)
peptide: Dnp-GPLGMRG-NH2
SMILES: CSCC[C@H](NC(=O)CNC(=O)[C@H](CC(C)C)NC(=O)[C@@H]1CCCN1C(=O)CNc1ccc([N+](=O)[O-])cc1[N+](=O)[O-])C(=O)N[C@@H](CCCNC(=N)N)C(=O)NCC(N)=O
B5 was tested, and the “Selectivity v. Coll-3, + 1:1 Gelatin” value (human Gelatinase-A) was 41 unitless, the “Selectivity v. Coll-3, + 1:4 Gelatin” value (human Gelatinase-A) was 46 unitless and the “Selectivity v. Coll-3, + 1:16 Gelatin” value (human Gelatinase-A) was 84 unitless. For the same binder, the “Selectivity v. Coll-3, + 1:64 Gelatin” value (human Gelatinase-A) was 69 unitless, the “Selectivity v. Coll-3, + 1:256 Gelatin” value (human Gelatinase-A) was 73 unitless and the “Selectivity v. Coll-3, + H2O” value (human Gelatinase-A) was 6 unitless. For the same binder, the “Selectivity v. Coll-3, + 1:1 Gelatin” value (gelatinase B) was 5 unitless, the “Selectivity v. Coll-3, + 1:4 Gelatin” value (gelatinase B) was 5 unitless and the “Selectivity v. Coll-3, + 1:16 Gelatin” value (gelatinase B) was 13 unitless. The “Selectivity v. Coll-3, + 1:64 Gelatin” value (gelatinase B) was 13 unitless, the “Selectivity v. Coll-3, + 1:256 Gelatin” value (gelatinase B) was 18 unitless and the “Selectivity v. Coll-3, + H2O” value (gelatinase B) was 2 unitless. The “Selectivity v. Coll-3, + 1:1 Gelatin” value (collagenase 1) was 91 unitless, the “Selectivity v. Coll-3, + 1:4 Gelatin” value (collagenase 1) was 96 unitless and the “Selectivity v. Coll-3, + 1:16 Gelatin” value (collagenase 1) was 215 unitless. For the same binder, the “Selectivity v. Coll-3, + 1:64 Gelatin” value (collagenase 1) was 236 unitless, the “Selectivity v. Coll-3, + 1:256 Gelatin” value (collagenase 1) was 378 unitless and the “Selectivity v. Coll-3, + H2O” value (collagenase 1) was 245 unitless.

B6: Dnp-GPINLHG-NH2 (peptide)
peptide: Dnp-GPINLHG-NH2
SMILES: CC[C@H](C)[C@H](NC(=O)[C@@H]1CCCN1C(=O)CNc1ccc([N+](=O)[O-])cc1[N+](=O)[O-])C(=O)N[C@@H](CC(N)=O)C(=O)N[C@@H](CC(C)C)C(=O)N[C@@H](Cc1c[nH]cn1)C(=O)NCC(N)=O
B6 was tested, and the “Selectivity v. Coll-3” value (human Gelatinase-A) was 28 unitless, the “Selectivity v. Coll-3” value (gelatinase B) was 15 unitless and the “Selectivity v. Coll-3” value (collagenase 1) was 180 unitless. For the same binder, the “Selectivity v. Coll-3” value (stromelysin 1) was 1110 unitless.

B7: Dnp-GPSELKG-NH2 (peptide)
peptide: Dnp-GPSELKG-NH2
SMILES: CC(C)C[C@H](NC(=O)[C@H](CCC(=O)O)NC(=O)[C@H](CO)NC(=O)[C@@H]1CCCN1C(=O)CNc1ccc([N+](=O)[O-])cc1[N+](=O)[O-])C(=O)N[C@@H](CCCCN)C(=O)NCC(N)=O
With B7 the “Selectivity v. Coll-3” value (human Gelatinase-A) was 7 unitless, the “Selectivity v. Coll-3” value (gelatinase B) was 4 unitless and the “Selectivity v. Coll-3” value (collagenase 1) was 470 unitless. For the same binder, the “Selectivity v. Coll-3” value (stromelysin 1) was 831 unitless.

B8: Dnp-GPLQMRG-NH2 (peptide)
peptide: Dnp-GPLQMRG-NH2
SMILES: CSCC[C@H](NC(=O)[C@H](CCC(N)=O)NC(=O)[C@H](CC(C)C)NC(=O)[C@@H]1CCCN1C(=O)CNc1ccc([N+](=O)[O-])cc1[N+](=O)[O-])C(=O)N[C@@H](CCCNC(=N)N)C(=O)NCC(N)=O
In the case of B8, the “Selectivity v. Coll-3” value (human Gelatinase-A) is reported as 15 unitless, the “Selectivity v. Coll-3” value (gelatinase B) is reported as 1 unitless and the “Selectivity v. Coll-3” value (collagenase 1) is reported as 290 unitless. The “Selectivity v. Coll-3” value (stromelysin 1) was 311 unitless.

B9: Dnp-GPLSISG-NH2 (peptide)
peptide: Dnp-GPLSISG-NH2
SMILES: CC[C@H](C)[C@H](NC(=O)[C@H](CO)NC(=O)[C@H](CC(C)C)NC(=O)[C@@H]1CCCN1C(=O)CNc1ccc([N+](=O)[O-])cc1[N+](=O)[O-])C(=O)N[C@@H](CO)C(=O)NCC(N)=O
For B9, the “Selectivity v. Coll-3” value (human Gelatinase-A) was 7 unitless, the “Selectivity v. Coll-3” value (gelatinase B) was 1 unitless and the “Selectivity v. Coll-3” value (collagenase 1) was 11 unitless.

B10: Dnp-…(Me)YLG-NH2 (peptide)
peptide: Dnp-DEGPMGLK[C(Me)]YLG-NH2
SMILES: CSCC[C@H](NC(=O)[C@@H]1CCCN1C(=O)CNC(=O)[C@H](CCC(=O)O)NC(=O)[C@H](CC(=O)O)Nc1ccc([N+](=O)[O-])cc1[N+](=O)[O-])C(=O)NCC(=O)N[C@@H](CC(C)C)C(=O)N[C@@H](CCCCN)C(=O)N[C@@H](CSC)C(=O)N[C@@H](Cc1ccc(O)cc1)C(=O)N[C@@H](CC(C)C)C(=O)NCC(N)=O
With B10 the “Selectivity v. Coll-3” value (human Gelatinase-A) was 9 unitless, the “Selectivity v. Coll-3” value (gelatinase B) was 4 unitless and the “Selectivity v. Coll-3” value (collagenase 1) was 452 unitless. The “Selectivity v. Coll-3” value (stromelysin 1) was 468 unitless.

B11: Dnp-GPVNLHGC(Me)-NH2 (peptide)
peptide: Dnp-GPVNLHG[C(Me)]-NH2
SMILES: CSC[C@H](NC(=O)CNC(=O)[C@H](Cc1c[nH]cn1)NC(=O)[C@H](CC(C)C)NC(=O)[C@H](CC(N)=O)NC(=O)[C@@H](NC(=O)[C@@H]1CCCN1C(=O)CNc1ccc([N+](=O)[O-])cc1[N+](=O)[O-])C(C)C)C(N)=O
B11 was tested, and the “Selectivity v. Coll-3” value (human Gelatinase-A) was 15 unitless, the “Selectivity v. Coll-3” value (gelatinase B) was 3 unitless and the “Selectivity v. Coll-3” value (collagenase 1) was 1390 unitless. The “Selectivity v. Coll-3” value (stromelysin 1) was 770 unitless.

B12: Dnp-GPHPMRG-NH2 (peptide)
peptide: Dnp-GPHPMRG-NH2
SMILES: CSCC[C@H](NC(=O)[C@@H]1CCCN1C(=O)[C@H](Cc1c[nH]cn1)NC(=O)[C@@H]1CCCN1C(=O)CNc1ccc([N+](=O)[O-])cc1[N+](=O)[O-])C(=O)N[C@@H](CCCNC(=N)N)C(=O)NCC(N)=O
With B12 the “Selectivity v. Coll-3” value (human Gelatinase-A) was 12 unitless, the “Selectivity v. Coll-3” value (gelatinase B) was 4 unitless and the “Selectivity v. Coll-3” value (collagenase 1) was 526 unitless. For the same binder, the “Selectivity v. Coll-3” value (stromelysin 1) was 287 unitless.

B13: Dnp-PINLHG-NH2 (peptide)
peptide: Dnp-PINLHG-NH2
SMILES: CC[C@H](C)[C@H](NC(=O)[C@@H]1CCCN1c1ccc([N+](=O)[O-])cc1[N+](=O)[O-])C(=O)N[C@@H](CC(N)=O)C(=O)N[C@@H](CC(C)C)C(=O)N[C@@H](Cc1c[nH]cn1)C(=O)NCC(N)=O
With B13 the “Selectivity v. Coll-3” value (human Gelatinase-A) was 9 unitless, the “Selectivity v. Coll-3” value (gelatinase B) was 4 unitless and the “Selectivity v. Coll-3” value (collagenase 1) was 101 unitless. For the same binder, the “Selectivity v. Coll-3” value (stromelysin 1) was 824 unitless.

B14: Dnp-GPFGLKG-NH2 (peptide)
peptide: Dnp-GPFGLKG-NH2
SMILES: CC(C)C[C@H](NC(=O)CNC(=O)[C@H](Cc1ccccc1)NC(=O)[C@@H]1CCCN1C(=O)CNc1ccc([N+](=O)[O-])cc1[N+](=O)[O-])C(=O)N[C@@H](CCCCN)C(=O)NCC(N)=O
With B14 the “Selectivity v. Coll-3” value (human Gelatinase-A) was 26 unitless, the “Selectivity v. Coll-3” value (gelatinase B) was 3 unitless and the “Selectivity v. Coll-3” value (collagenase 1) was 408 unitless. The “Selectivity v. Coll-3” value (stromelysin 1) was 1380 unitless.

B15: Dnp-PSGIHL-NH2 (peptide)
peptide: Dnp-PSGIHL-NH2
SMILES: CC[C@H](C)[C@H](NC(=O)CNC(=O)[C@H](CO)NC(=O)[C@@H]1CCCN1c1ccc([N+](=O)[O-])cc1[N+](=O)[O-])C(=O)N[C@@H](Cc1c[nH]cn1)C(=O)N[C@@H](CC(C)C)C(N)=O
B15 was tested, and the “Selectivity v. Coll-3” value (human Gelatinase-A) was 2 unitless, the “Selectivity v. Coll-3” value (gelatinase B) was 2 unitless and the “Selectivity v. Coll-3” value (collagenase 1) was 1320 unitless.

B16: Dnp-…(Me)-NH2 (peptide)
peptide: Dnp-GPVNLHGR[C(Me)]-NH2
SMILES: CSC[C@H](NC(=O)[C@H](CCCNC(=N)N)NC(=O)CNC(=O)[C@H](Cc1c[nH]cn1)NC(=O)[C@H](CC(C)C)NC(=O)[C@H](CC(N)=O)NC(=O)[C@@H](NC(=O)[C@@H]1CCCN1C(=O)CNc1ccc([N+](=O)[O-])cc1[N+](=O)[O-])C(C)C)C(N)=O
With B16 the “Selectivity v. Coll-3” value (human Gelatinase-A) was 9 unitless, the “Selectivity v. Coll-3” value (gelatinase B) was 2 unitless and the “Selectivity v. Coll-3” value (collagenase 1) was 2120 unitless. For the same binder, the “Selectivity v. Coll-3” value (stromelysin 1) was 510 unitless.
